From US11883498B2, “Luteinizing hormone-releasing hormone receptor (LHRH-R) conjugates and uses thereof” (priority 2016, dated 2024)
pIC50, pKd: −log10 of the molar value.

Key:
[1] = system: MDA-MB231 tumor xenografts; conditions: for Competition of kidney uptake by coadministered unlabeled conjugate: 100-fold excess unlabeled conjugate
Experimental: Animal Husbandry and in vivo tumor implantation. Female athymic nu/nu mice were purchased from Harlan laboratories. The animals were housed in a sterile environment and kept in 12 h light/day cycle. The animals have free access to rodent chow and water. 2×10^6 MDA-MB23 cells were suspended in 100 microliters of sterile phosphate buffer saline and injected subcutaneously into the right flank of each mouse.
In vivo imaging and biodistribution. All the animal experiments were conducted in accordance to the guidelines approved by Purdue Animal Care and Use Committee. The experiment was initiated once the tumor volume reached approximately 300-400 mm^3. Tumor volume was measured as 0.5×L×W2, where L is the longest axis and W is an axis perpendicular to L in mm. In the lateral tail vein, the mice were injected with 150 μCi of the radioactive conjugates (either in the presence or absence of excess of the unlabeled conjugates.) in 100 μl of sterile phosphate buffer saline For imaging mice were euthanized 2 h post injection by CO2 asphyxiation and imaged using Kodak Imaging Station. After imaging necroscopy was performed on animals to remove selected tissue and weighted. Tissue bound radioactivity was quantified by using gamma counter (Packard Gamma Counter) For time course study, the animals were sacrificed at following time points post injections: 2 h, 4 h, 6 h, and 8 h. Tissue of interest was weighed and the tissue bound radioactivity was counted by using gamma counter. Count per minute values of tissues bound radioactivity was decay corrected and converted into percentage injected dose per gram if the tissue (% ID/g). The data was analyzed by using GraphPad Prism.
In vivo whole body imaging and biodistribution of JL-L1A, JL-L2A and JL-L3A. In order to investigate the uptake of radioactive conjugates in LHRH-R positive tumors all the three conjugates (150 μCi) were injected the lateral vein of mice with MDA-MB231 tumors. For competition studies the mice were additional injected with 100-fold excess of the unlabeled conjugates. MDA-MB231 tumor bearing mice were injected with the ^99mTc chelated conjugates in their lateral tail vein (mice labeled as treated). Another group of mice were injected with the ^99mTc labeled molecules but in the presence of excess of the unlabeled conjugates. Images were taken 2 h post injections. FIG. 17A represents whole body imaging of JL-L1A whereas FIG. 17B and FIG. 17C represents the whole body imaging of JL-L2A and JL-L3A respectively. (n=5).
The further investigate the retention of 99mTc chelated JL-L3A, the radioactive conjugate was injected in mice with MDA-MB231 xenografts. After euthanizing the. Animals at 2 h, 4 h and 8 h post injection they were imaged and radioactivity associated with organs of interest was counted. […] MDA-MB231 tumor bearing mice were injected with the ^99mTc chelated conjugates in their lateral tail vein (mice labeled as treated). Another group of mice were injected with the ^99mTc labeled molecules but in the presence of excess of the unlabeled conjugates. Radioactivity of all the major organs and blood were determined 2 h post injection and the percentage injected dose per gram of the tissue was plotted. FIG. 18A represents biodistribution of JL-L1A whereas FIG. 18B and FIG. 18C represents the biodistribution of JL-L2A and JL-L3A respectively (n=5). Error bar indicates standard deviation.

MDA-MB231 cells = type: cell-based, human; conditions: free drug, 2 h exposure + 66 h, 3H-thymidine incorporation; read-out: IC50
Experimental: (§1) In vitro determination of cell viability. MDA-MB231 and SKVO3 cells were seeded at a concentration of 10,000 cells per well on a 24 well plate and allowed to grow in monolayers. […] After incubating for 2 h at 37° C., cells were rinsed three times with fresh medium and then incubated in 0.5 ml fresh medium for an additional 66 h at 37° C. Sent medium was then replaced with 0.5 ml of medium containing ^3H-thymidine and incubated for additional 4 h. Cells were then again washed three times with the fresh medium and then incubated with 0.5 ml of 2.5% trichloroacetic acid for 10 min at room temperature. After removing the trichloroacetic acid, cells were dissolved in 0.25 N NaOH. Cell viability was determined by counting the incorporation of ^3H-thymidine in cells using scintillation counter (Packard, Packard Instrument Company). The IC50 value was derived from a plot of the percent of ^3H-thymidine incorporation versus log concentration using Graph Pad Prism 4.
(§2) In vitro cytotoxicity of tubulysin B hydrazide conjugate: To inspect the killing efficiency of the therapeutic conjugate, MDA-MB231 and SKOV3 cancer cells were incubated with various concentrations of JL-L3-TubBH either in the presence or absence of excess JL-L3, for 2 h at 37° C. After washing off the excess conjugate, the cells were incubated in fresh media for an additional 66 h followed by incubation with media containing ^3H-thymidine to assess cell viability. Radioactivity was counted using PerkinElmer's scintillation counter. The same procedure was repeated after exposing the cells to the free tubulysin B hydrazide.

SKOV3 cells = type: cell-based, human; conditions: free drug, 2 h exposure + 66 h, 3H-thymidine incorporation
Experimental: as §1, §2

LHRH-R = target: T1, LHRH-R (Homo sapiens, UniProt P30968); assay: In vitro binding assay of 99mTc radioactive conjugate by cell bound radioactivity; conditions: MDA-MB231 cells
T1 construct: LHRH-R positive breast cancer cell, MDA-MB231; endogenous in cells; host or cells: MDA-MB231 breast cancer cells
T1 sequence (P30968 1-328): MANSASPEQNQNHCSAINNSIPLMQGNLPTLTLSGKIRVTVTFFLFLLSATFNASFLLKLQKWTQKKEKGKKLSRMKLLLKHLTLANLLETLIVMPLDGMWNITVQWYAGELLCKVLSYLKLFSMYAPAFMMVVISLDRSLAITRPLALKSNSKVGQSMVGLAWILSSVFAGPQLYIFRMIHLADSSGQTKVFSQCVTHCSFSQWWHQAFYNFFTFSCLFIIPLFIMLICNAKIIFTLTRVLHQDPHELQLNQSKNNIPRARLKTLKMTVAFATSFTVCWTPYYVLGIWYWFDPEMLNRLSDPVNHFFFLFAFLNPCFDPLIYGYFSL
Experimental: In vitro binding assay. MDA-MB231 cells were seeded in 24 well plate and allowed to form a monolayer. […] The cells were incubated for 2 h at 37° C. and then rinsed three times with medium. After rinsing cells were dissolved by adding 0.5 ml of 0.25N NaOH to each well for 20 minutes. The cell bound radioactivity measured by using Packcard gamma counter and the Kd was calculated using the graphpad prism by plotting the cell bound radioactivity against the concentration of radiotracer. […] Solid circle indicates ^99mTc chelated conjugates whereas open circle indicates competition.
To determine the binding affinity, the MDA-MB231 cells were incubated with various concentrations of the radioactive conjugate JL-L1A either in the presence or absence of the unlabeled conjugate for 2 h at 37° C.

## Cc1c(-c2cccc(CCC(=O)NCCOCCOCCOCCOCCOCCOCCC(=O)NC[C@H](N)C(=O)N[C@@H](CC(=O)O)C(=O)N[C@@H](CS)C(=O)O)c2)c(=O)n(C[C@H](N)c2ccccc2)c(=O)n1Cc1c(F)cccc1F [JL-L2A]
[1]; 2 h post injection
  Competition of kidney uptake by coadministered unlabeled conjugate: not competed
[1]; 150 μCi, 2 h post injection
  Kidney uptake: highest uptake in the kidney
  Spleen uptake: significant non-specific uptake in the spleen

## CCCC(=O)OCN(C(=O)[C@@H](NC(=O)[C@H]1CCCCN1C)C(C)CC)[C@H](C[C@@H](OC(C)=O)c1nc(C(=O)N[C@@H](Cc2ccc(O)cc2)C[C@H](C)C(=O)NN)cs1)C(C)C (stereo partly shown) [tubulysin B hydrazide, Tubulysin B hydrazide, reference compound]
MDA-MB231 cells
  pIC50: 10.17
SKOV3 cells
  pIC50: 11.30

## Cc1c(-c2cccc(CCC(=O)NCCCCCCCC(=O)N[C@H](CCC(=O)NC[C@H](O)[C@@H](O)[C@H](O)[C@H](O)CO)C(=O)N[C@H](CCC(=O)O)C(=O)N[C@H](CCC(=O)NC[C@H](O)[C@@H](O)[C@H](O)[C@H](O)CO)C(=O)NC[C@H](N)C(=O)N[C@@H](CC(=O)O)C(=O)N[C@@H](CS)C(=O)O)c2)c(=O)n(C[C@H](N)c2ccccc2)c(=O)n1Cc1c(F)cccc1F [JL-L3A]
LHRH-R; 99mTc chelated conjugate, 2 h at 37° C.
  pKd: 7.84
LHRH-R; presence of excess of competing ligand
  Cell-bound radioactivity under competition: diminished

## Cc1c(-c2cccc(CCC(=O)NCCCCCCCC(=O)N[C@H](CCC(=O)NC[C@H](O)[C@@H](O)[C@H](O)[C@H](O)CO)C(=O)N[C@H](CCC(=O)O)C(=O)N[C@H](CCC(=O)NC[C@H](O)[C@@H](O)[C@H](O)[C@H](O)CO)C(=O)NC[C@H](N)C(=O)N[C@@H](CC(=O)O)C(=O)N[C@@H](CS)C(=O)O)c2)c(=O)n(C[C@H](N)c2ccccc2)c(=O)n1Cc1c(F)cccc1F (99mTc complex, metal not drawn) [JL-L3A]
[1]; 99mTc conjugate
  Kidney and liver uptake: non-specific
[1]; 2 h post injection
  Competition of kidney uptake by coadministered unlabeled conjugate: not competed
  Biodistribution compared among the three conjugates: most favorable biodistributions
[1]; 150 μCi, 2 h post injection
  Kidney uptake: highest uptake in the kidney
  Spleen uptake: only minimal activity
[1]; compared with 2 h post injection
  Tissue distribution at 4 h and 8 h post injection: same pattern as 2 h post injection
[1]; time-dependent imaging, 2 h, 4 h, 8 h
  Tumor radioactivity intensity at 8 h relative to 2 h post-injection: less than half of the intensity at 2 h post-injection

## Cc1c(-c2cccc(CCC(=O)N[C@@H](CCC(=O)N[C@H](CCC(=O)NC[C@H](N)C(=O)N[C@@H](CC(=O)O)C(=O)N[C@@H](CS)C(=O)O)C(=O)O)C(=O)O)c2)c(=O)n(C[C@H](N)c2ccccc2)c(=O)n1Cc1c(F)cccc1F [JL-L1A]
[1]; 150 μCi 99mTc conjugate i.v., 2 h post injection, with/without 100-fold excess unlabeled conjugate
  Tumor uptake: highest uptake in the tumor
[1]; 150 μCi, 2 h post injection
  Uptake in other organs: uptake in other vital organs
